Experimental data as given in article PMC6103731 (RNA Biology, 2017).

T1: EC1-2 domain of VE-cadherin
T1 sequence (P33151 whole entry, species assumed, looked up): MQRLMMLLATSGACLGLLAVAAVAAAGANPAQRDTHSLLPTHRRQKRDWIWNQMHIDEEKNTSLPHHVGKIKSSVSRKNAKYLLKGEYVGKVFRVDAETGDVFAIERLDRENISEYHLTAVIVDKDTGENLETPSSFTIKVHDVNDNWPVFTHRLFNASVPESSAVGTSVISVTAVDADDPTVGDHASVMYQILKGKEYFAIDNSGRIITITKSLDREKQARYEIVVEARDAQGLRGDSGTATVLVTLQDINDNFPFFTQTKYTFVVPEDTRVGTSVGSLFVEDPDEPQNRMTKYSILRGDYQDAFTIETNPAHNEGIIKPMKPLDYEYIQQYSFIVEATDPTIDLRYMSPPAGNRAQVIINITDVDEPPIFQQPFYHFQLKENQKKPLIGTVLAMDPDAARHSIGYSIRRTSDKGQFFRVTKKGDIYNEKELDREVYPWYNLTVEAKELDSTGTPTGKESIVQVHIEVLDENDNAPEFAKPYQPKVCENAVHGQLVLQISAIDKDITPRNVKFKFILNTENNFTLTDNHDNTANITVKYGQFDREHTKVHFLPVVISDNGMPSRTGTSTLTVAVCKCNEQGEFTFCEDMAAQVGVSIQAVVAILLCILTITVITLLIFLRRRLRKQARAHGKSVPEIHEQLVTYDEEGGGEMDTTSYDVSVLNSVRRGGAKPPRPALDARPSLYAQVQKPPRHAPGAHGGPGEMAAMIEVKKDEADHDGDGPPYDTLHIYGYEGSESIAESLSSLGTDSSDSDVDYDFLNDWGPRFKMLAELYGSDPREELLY


What was measured:
crystal structure = target: the molecule itself; test: crystal structure
[1] = target: T1, EC1-2 domain of VE-cadherin; test: SPR

Row | fold stronger binding affinity than WT T2-TrpRS [1] [fold] | kon [1] [M⁻¹ s⁻¹] | Binder | stoichiometry N (crystal structure)
1 | > 50 | 2.71e+07 | human H130R T2-TrpRS (domain or fragment, UniProt P23381 97-471, looked up) GIDYDKLIVRFGSSKIDKELINRIERATGQRPHRFLRRGIFFSHRDMNQVLDAYENKKPFYLYTGRGPSSEAMHVGHLIPFIFTKWLQDVFNVPLVIQMTDDEKYLWKDLTLDQAYSYAVENAKDIIACGFDINKTFIFSDLDYMGMSSGFYKNVVKIQKHVTFNQVKGIFGFTDSDCIGKISFPAIQAAPSFSNSFPQIFRDRTDIQCLIPCAIDQDPYFRMTRDVAPRIGYPKPALLHSTFFPALQGAQTKMSASDPNSSIFLTDTAKQIKTKVNKHAFSGGRDTIEEHRQFGGNCDVDVSFMYLTFFLEDDDKLEQIRKDYTSGAMLTGELKKALIEVLQPLIAEHQARRKEVTDEIVKEFMTPRKLSFDFQ | 2
2 |  | 176000 | wild-type human T2-TrpRS (domain or fragment) GIDYDKLIVRFGSSKIDKELINRIERATGQRPHHFLRRGIFFSHRDMNQVLDAYENKKPFYLYTGRGPSSEAMHVGHLIPFIFTKWLQDVFNVPLVIQMTDDEKYLWKDLTLDQAYSYAVENAKDIIACGFDINKTFIFSDLDYMGMSSGFYKNVVKIQKHVTFNQVKGIFGFTDSDCIGKISFPAIQAAPSFSNSFPQIFRDRTDIQCLIPCAIDQDPYFRMTRDVAPRIGYPKPALLHSTFFPALQGAQTKMSASDPNSSIFLTDTAKQIKTKVNKHAFSGGRDTIEEHRQFGGNCDVDVSFMYLTFFLEDDDKLEQIRKDYTSGAMLTGELKKALIEVLQPLIAEHQARRKEVTDEIVKEFMTPRKLSFDFQ | 
